Measurements reported in US20260085114A1 (KYINNO BIOTECHNOLOGY, published 2026).
One block for each binder: values may come before it.

Legend:
[1] = target: T1, human GPRC5C, on 293T cells (human, UniProt Q9NQ84 24-441); assay: FACS on 293T-GPRC5C cells, antibody at 2 µg/mL; control tubes 8.86 and 8.73
T1 construct: whole, on cells; also called 293T-GPRC5C
Method: (§1) 100 μl of FACS buffer was then added to each FACS tube for resuspension. 5 μl of PE-labeled, anti-murine Fc tagged secondary antibody (Biolegend, catalog number 409304) was added according to instructions, and incubated at 4° C. in the dark for 30 mins. Then 1 ml of FACS buffer was added, and centrifuged at 1200 rpm at room temperature for 5 mins. The supernatant was discarded followed by washing three times.
(§2) The experimental process was as described in Example 4, cells expressing other members of G protein-coupled receptor class C group 5 as follows were used: 293T cells expressing human GPRC5A, 293T-GPRC5A (Kyinno, catalog number KC-1888), 293T cells expressing human GPRC5B, 293T-GPRC5B (Kyinno, catalog number KC-1854), and 293T cells expressing human GPRC5C, 293T-GPRC5C (Kyinno, catalog number KC-1889). […] Control tube 1 (no antibody and secondary antibody, adding only cell suspension) and Control tube 2 (no antibody, adding only cell suspension and secondary antibody) were included.

[2] = target: T2, monkey (cyno) GPRC5D, on 293T cells (monkey (cyno)); assay: FACS on 293T cells expressing monkey GPRC5D
T2 construct: whole, on cells; also called monkey GPRC5D
Source text: (§3) According to the method described in Example 4, the binding between the culture supernatant of the hybridoma cells and monkey GPRC5D was detected, except that the human GPRC5D-expressing cells were replaced with 293T cells expressing monkey GPRC5D (Kyinno, catalog number KC-1586).

[3] = target: T2, monkey (cyno) GPRC5D, on 293T cells; assay: FACS on 293T cells expressing monkey (cyno) GPRC5D (run with 6E97(hz))
Method: as §1
(§4) The experimental process was as described in Example 4. […] Control tube 1 (no antibody and secondary antibody, adding only cell suspension) and Control tube 2 (no antibody, adding only cell suspension and secondary antibody) were included.

[4] = target: T2, monkey (cyno) GPRC5D, on 293T cells; assay: FACS on 293T cells expressing monkey (cyno) GPRC5D (run with 24F5(hz))
Method: as §1, §4

[5] = target: T2, monkey (cyno) GPRC5D, on 293T cells; assay: FACS on 293T cells expressing monkey (cyno) GPRC5D (run with 9D7(hz))
Method: as §1, §4

[6] = target: T3, human GPRC5B, on 293T cells (human, UniProt Q9NZH0 29-403); assay: FACS on 293T-GPRC5B cells, antibody at 2 µg/mL; control tubes 8.55 and 8.26
T3 construct: whole, on cells; also called 293T-GPRC5B
Method: as §1, §2

[7] = target: T2, monkey (cyno) GPRC5D, on 293T cells; assay: FACS, hybridoma supernatant on 293T cells expressing monkey GPRC5D
Source text: as §3

[8] = target: T4, human GPRC5D (G protein-coupled receptor class C group 5 member D), on cells (human, UniProt Q9NZD1 1-345); assay: cell ELISA, hybridoma supernatant on fixed BXPC-3 cells expressing human GPRC5D
T4 construct: whole, on cells; also called hGPRC5D
Method: BXPC-3 cells expressing human GPRC5D (Kyinno, catalog number KC-1717) were prepared into a suspension at concentration of 1×10⁵ cells/ml in PBS containing 2% FBS. The suspension was added to a 96-well plate at 100 μl/well and cultured overnight at 37° C. The wells were cleared of their contents and washed three times with washing solution. 80 μl of 4% tissue fixative (Beyotime, catalog number P0099) was added to each well followed by fixing at room temperature for 15 min, washing twice with PBS and drying. 250 μl of blocking solution containing 2% BSA was added to each well followed by incubation at 37° C. for 1 hr and washing three times with PBS. 50-100 μl of the supernatant of the hybridoma cell culture was added to each well. A positive control (adding serum from fusion mice), a negative control (adding serum from normal mice) and a blank control (adding culture medium) were included. The wells were incubated at 37° C. for 1-2 hrs, washed, and dried. Then, the enzyme-labeled secondary antibody, HRP-labeled goat anti-mouse IgG (SIGMA, catalog number A9044-2 ml) was added at dilution of 1:10000 and 50-100 μl/well. The wells were incubated at 37° C. for 1-2 hrs, washed, and dried. 50-100 μl of freshly prepared developing solution TMB was added to each well and incubated at 37° C. for 10-30 mins.
2 mol/L H₂SO₄ was added to terminate the reaction, and the OD value was read on an enzyme-linked immunosorbent reader.

[9] = target: T4, human GPRC5D (G protein-coupled …); assay: FACS, hybridoma supernatant on 293T cells expressing human GPRC5D
Method: (§5) 293T cells expressing human GPRC5D as described above was prepared into a suspension at concentration of 1×10⁵ cells/ml in PBS containing 2% FBS.
(§6) 1 ml of FACS buffer was added to each FACS tube, centrifuged at 1200 rpm for 5 mins. The supernatant was discarded followed by washing three times. At the same time, control tube 1 (no supernatant of the culture and the secondary antibody mentioned below, adding only cell suspension) and control tube 2 (no supernatant of the culture, adding only cell suspension and the secondary antibody mentioned below) were included.
as §1

[10] = target: T4, human GPRC5D (G protein-coupled …); assay: as above; remark: listed apart in the source
Method: as §5, §6, §1

[11] = target: T4, human GPRC5D (G protein-coupled …); assay: FACS, hybridoma supernatant on MM1R cells
[12] = target: T4, human GPRC5D (G protein-coupled …); assay: FACS, hybridoma supernatant on 293T cells expressing human GPRC5D; remark: listed apart in the source
Method: as §5, §6, §1

[13] = target: T4, human GPRC5D (G protein-coupled …); assay: FACS, hybridoma supernatant on OPM2 cells
[14] = target: T2, monkey (cyno) GPRC5D, on 293T cells; assay: FACS, hybridoma supernatant on 293T cells expressing monkey GPRC5D; remark: listed apart in the source
Source text: as §3

[15] = target: T4, human GPRC5D (G protein-coupled …); assay: FACS, hybridoma supernatant on 293T cells expressing human GPRC5D; remark: listed apart in the source
Method: as §5, §6, §1

[16] = target: T5, Nalm6 cells (NALM6, Kyinno, catalog number KC-0626); assay: FACS, hybridoma supernatant on Nalm6 cells
T5 construct: Kept apart from human GPRC5D so that the low MFI values on this line are not laid to the GPRC5D pair

[17] = target: T4, human GPRC5D (G protein-coupled …); assay: FACS, hybridoma supernatant on NCI-H929 cells
Method: as §1

T4 sequence (Q9NZD1 whole entry): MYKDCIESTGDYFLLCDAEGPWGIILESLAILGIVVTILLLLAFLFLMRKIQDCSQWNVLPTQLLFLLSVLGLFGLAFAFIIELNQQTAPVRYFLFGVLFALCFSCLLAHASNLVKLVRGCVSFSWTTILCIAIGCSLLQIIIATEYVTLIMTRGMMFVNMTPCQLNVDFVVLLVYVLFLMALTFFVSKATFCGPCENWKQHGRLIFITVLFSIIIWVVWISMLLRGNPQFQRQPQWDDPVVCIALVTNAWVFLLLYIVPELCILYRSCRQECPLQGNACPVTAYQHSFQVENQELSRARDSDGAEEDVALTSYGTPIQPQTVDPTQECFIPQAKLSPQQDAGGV
T3 sequence (Q9NZH0 29-403): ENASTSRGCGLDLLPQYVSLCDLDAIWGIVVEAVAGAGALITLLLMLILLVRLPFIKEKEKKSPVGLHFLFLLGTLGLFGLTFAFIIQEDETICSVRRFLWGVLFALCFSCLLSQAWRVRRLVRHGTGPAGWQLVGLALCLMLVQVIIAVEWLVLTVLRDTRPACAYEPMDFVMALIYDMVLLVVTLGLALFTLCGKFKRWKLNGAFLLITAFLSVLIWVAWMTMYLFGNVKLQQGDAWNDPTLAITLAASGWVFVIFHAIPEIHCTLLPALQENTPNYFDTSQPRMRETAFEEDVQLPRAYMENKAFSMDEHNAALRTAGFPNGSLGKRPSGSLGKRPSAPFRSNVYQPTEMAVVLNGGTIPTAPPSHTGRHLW
T1 sequence (Q9NQ84 24-441): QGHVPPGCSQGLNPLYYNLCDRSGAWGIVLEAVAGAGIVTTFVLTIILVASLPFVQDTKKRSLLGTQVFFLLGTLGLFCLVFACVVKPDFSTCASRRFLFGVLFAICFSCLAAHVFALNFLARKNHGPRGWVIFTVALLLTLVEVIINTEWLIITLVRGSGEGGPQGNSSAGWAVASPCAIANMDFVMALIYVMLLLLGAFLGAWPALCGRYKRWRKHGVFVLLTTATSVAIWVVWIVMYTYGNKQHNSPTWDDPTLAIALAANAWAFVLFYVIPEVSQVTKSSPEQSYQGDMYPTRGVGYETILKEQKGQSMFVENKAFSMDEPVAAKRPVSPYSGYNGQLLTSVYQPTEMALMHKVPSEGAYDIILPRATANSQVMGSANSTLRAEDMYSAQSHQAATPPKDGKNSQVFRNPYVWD

B1: GPRC5D×CD3 JNJ (anti-hGPRC5D×CD3 bispecific antibody built with the GPRC5D-targeting and CD3-targeting domains of Talquetamab, JNJ-64407564) (bispecific antibody, human IgG1, kappa, lambda)
heavy 1: QVQLVQSGAEVKKPGASVKVSCKASGYSFTGYTMNWVRQAPGQGLEWMGLINPYNSDTNYAQKLQGRVTMTTDTSTSTAYMELRSLRSDDTAVYYCARVALRVALDYWGQGTLVTVSSASTKGPSVFPLAPSSKSTSGGTAALGCLVKDYFPEPVTVSWNSGALTSGVHTFPAVLQSSGLYSLSSVVTVPSSSLGTQTYICNVNHKPSNTKVDKRVEPKSCDKTHTCPPCPAPPAAGPSVFLFPPKPKDTLMISRTPEVTCVVVDVSHEDPEVKFNWYVDGVEVHNAKTKPREEQYNSTYRVVSVLTVLHQDWLNGKEYKCKVSNKALAAPIEKTISKAKGQPREPQVYTLPPCREEMTKNQVSLWCLVKGFYPSDIAVEWESNGQPENNYKTTPPVLDSDGSFLLYSKLTVDKSRWQQGNVFSCSVMHEALHNHYTQKSLSLSPGK
heavy 2: QTVVTQEPSLTVSPGGTVTLTCRSSTGAVTTSNYANWVQQKPGQAPRGLIGGTNKRAPGTPARFSGSLLGGKAALTLSGVQPEDEAEYYCALWYSNLWVFGGGTKLTVLSSASTKGPSVFPLAPSSKSTSGGTAALGCLVEDYFPEPVTVSWNSGALTSGVHTFPAVLQSSGLYSLSSVVTVPSSSLGTQTYICNVNHKPSNTKVDDRVEPKSCDKTHTCPPCPAPPAAGPSVFLFPPKPKDTLMISRTPEVTCVVVDVSHEDPEVKFNWYVDGVEVHNAKTKPREEQYNSTYRVVSVLTVLHQDWLNGKEYKCKVSNKALAAPIEKTISKAKGQPREPQVCTLPPSREEMTKNQVSLSCAVKGFYPSDIAVEWESNGQPENNYKTTPPVLDSDGSFFLVSRLTVDKSRWQQGNVFSCSVMHEALHNHYTQKSLSLSPGK
light 1: DIQMTQSPSSLSASVGDRVTITCKASQNVATHVGWYQQKPGKAPKRLIYSASYRYSGVPSRFSGSGSGTEFTLTISNLQPEDFATYYCQQYNRYPYTFGQGTKLEIKRTVAAPSVFIFPPSDEQLKSGTASVVCLLNNFYPREAKVQWKVDNALQSGNSQESVTEQDSKDSTYSLSSTLTLSKADYEKHKVYACEVTHQGLSSPVTKSFNRGEC
light 2: EVQLVESGGGLVQPGGSLRLSCAASGFTFNTYAMNWVRQAPGKGLEWVARIRSKYNNYATYYAASVKGRFTISRDDSKNSLYLQMNSLKTEDTAVYYCARHGNFGNSYVSWFAYWGQGTLVTVSSGQPKAAPSVTLFPPSSEELQANKATLVCLISDFYPGAVTVAWKADSSPVKAGVETTTPSKQSNNKYAASSYLSLTPEQWKSHRSYSCQVTHEGSTVEKTVAPTECS
notes: used as the positive control antibody throughout; also called Positive control antibody
FACS result [1]: 8.72
EC50 [2]: 13.1 µg/mL
EC50 [3]: 3.27 µg/mL
EC50 [4]: 4.39 µg/mL
EC50 [5]: 14 µg/mL
FACS result [6]: 8.44

B2: murine antibody 26D1 (A2 antibody) (antibody, V domains shown)
VH: QVQLKQSGAELAGPGASVKMSCKASGYTFTSYTIQWIKQRPGQGLEWIGYIIPSSGYTNYNQKFKDKATLTADKSSNTAYMQLSSLTSEDSAVYYCANNYGNWGFTYWGQGTLVTVSA
VL: DILMTQSQKFMSTSVRDRVSISCKASQNVGSAVTWYQQKPGQSPRLLIYSASNRYTGVPDRFTGSGSGTDFTLTISNVQSEDLADYFCQQYSNYPLTFGGGTKLEIK
notes: Tested as hybridoma cell culture supernatant; also called murine anti-26D1
EC50 [7]: 12.3 µg/mL
OD value [8]: 0.871 OD
EC50 [9]: 0.169 µg/mL
EC50 [10]: 0.788 µg/mL

The remaining lines, values ahead:

EC50 [7]: 0.376 µg/mL
MFI.Max [7]: 5440 MFI
EC50 [11]: 0.104 µg/mL
MFI.Max [11]: 554 MFI
OD value [8]: 0.541 OD
EC50 [12]: 0.279 µg/mL
EC50 [9]: 0.185 µg/mL
EC50 [13]: 0.177 µg/mL
MFI.Max [13]: 705 MFI
EC50 [14]: 0.229 µg/mL
EC50 [15]: 0.183 µg/mL
MFI.Max [15]: 9380 MFI
MFI.Max [16]: 10.8 MFI
EC50 [17]: 0.021 µg/mL
MFI.Max [17]: 506 MFI
B3: murine antibody 9D7 (A1 antibody) (antibody, V domains shown)
VH: QVQLKESGPGLVKPSQSLSLTCTVTGYSITSDYAWNWIRQFPGNKLEWMGYISYSGSATYNPSLKSRISITRDTSKNQFFLQLNSMTTEDTATYYCARGGIAGRGRWGAMDYWGQGTSVTVSS
VL: DIVMTQAQKFMSTSVGDRVSVTCKASQNVGTNVAWYQNKPGQSPKALIYSASYRDSGVPDRFTGRGSGTDFTLTISNVQSEDLAEYFCQQYKSYPLTFGAGTKLELK
notes: Tested as hybridoma cell culture supernatant; also called murine anti-9D7

EC50 [7]: 0.243 µg/mL
MFI.Max [7]: 6290 MFI
MFI.Max [11]: 931 MFI
OD value [8]: 1.55 OD
EC50 [13]: 0.291 µg/mL
MFI.Max [13]: 1080 MFI
EC50 [15]: 0.111 µg/mL
MFI.Max [15]: 9610 MFI
MFI.Max [16]: 62.4 MFI
MFI.Max [17]: 900 MFI
B4: murine antibody 6E97 (A4 antibody) (antibody, V domains shown)
VH: QVQLKESGPELVKPGASVKISCKASGYTFPYYVIHWVKQKPGQGLEWIGYINPYNDGTKYNEKFKGKAALTSDKSSSTAYMELSSLTSEDSAVYYCARGGVRRYFDYWGQGTTLTVSS
VL: QIVLTQSPSSLSASLGERVSLTCRASQDIGSNLNWLQQEPDGTIKRLISATSSLDSGVPKRFSGSRSGSDYSLTISSLESEDFVDYFCLQYATFPYTFGGGTKLEIK
notes: Tested as hybridoma cell culture supernatant; also called murine anti-6E97
